# Experimental data taken from the nanobody polyreactivity screen of Harvey et al. (2022).
# Experiment: yeast display, Sf9 membrane polyspecificity reagent, FACS + sequencing; frameworks hold sequencing errors
# Method in brief: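 Galactose induction of a Saccharomyces cerevisiae BJ5465 synthetic nanobody display library ran 36–48 hours. The cells were then stained for 1 hour at 4 °C with 10% biotinylated, detergent-solubilized Sf9 membrane reagent, pulled down on streptavidin microbeads and FACS-sorted into low and high (top ~1%) gates on expression and reagent-binding fluorescence. Labels for polyreactivity follow the gate of origin.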
row,Sequence,polyreactivity (PSR sort gate)
1,QVQLVESGGGLVQAGGTRRLSCAASGSIFYYYAMGWYRQAPGKERELVAAINRGVGSTFYADSVKGRFTISRDNAKNTVYLQMNSLKPEDTAVYYCAVELNQVTPGLGYITLDYWGQGTQVTVSS,low polyreactivity
2,QVQLVESGGGLVQAGGSLRLSCAASGSIFNRYAMGWYRQEPGKERELVAAISRSGGRTYYADSVKGRFTISRDNAKNTVYLQMNSLKPEDTAVYYCAAQSYLHYGYWGQGTQVTVSS,high polyreactivity
3,QVQLVESGGGLVQAGGSLRLSCAASGFIFRNYVMGWKRPAPGKERELVADITFSGGGTYYADSVKGRFTISRDNAKNTVYLLMNSLIPEDTAVYYCAVYWNWQYDYCGQGTQVTVSS,high polyreactivity
4,QVQLVESGGALGQAGGSLRLSCAASGFTFRIYDMGWYRHAPGKETELVAAITNGGSTDYADSVKGRFTISRDNAKNTVYLQMNSLKPEDTAVYYCAADVTYQVYDLVSVWYDYWGQGTQVTVSS,low polyreactivity
5,QVQLVESGGGLVQAGGSLRLSCAASGFTFRYYAMGWYRPAPGKEREFVAAISKSGGTTDYADSVKGRFTISRDNAKNTVYLQMSSLKPEDTAVYYCAKSGGRLWYVWRRYGYWGQGTQVTVSS,high polyreactivity
6,QVQLVESGGGLVQAGGSLRLSCAASGRIFRGYAMGWYIQAPGKEREFVADITRSGGSTYYADSVKGRFTISRDNAKNTVYLQMNSLKPEDTAVYYCAREWYQYSPYHRFDYWGQGTQVTVSS,high polyreactivity
7,QVQLVESGGGLVQAGGSLRLSCAASGSIFRWNAMGWSRQATGKERELVAVINSSGGSTYYADSVKGRFTISRDNAKNTVYLQMNSLKPEDTAVYYCAADVFFYVYEAYLLYYWGQGTQVTVSS,low polyreactivity
8,QDQLVESGGGLVQAGGSLRLSCAASGRIFGWYAMGWYRQAPGKERELVAAISNDGSTNYADSVKGRFTISRDNAKNTVYLQMNSLKPEDTAVYYSAARFYRSSYGWYGYWGQGTQVTVSS,high polyreactivity
9,QVHLVESGGGLVQAGGTLRLSCAASGFTFRIYAMGWYIQAPGKERELVATISWSGTSTYYADSVKGRFTISRDNAKNTVYLQMNSLKPEDTAVYYCAKDGVSVYWLNKYYYWGQGTQVTVSS,low polyreactivity
10,QVQLVESGGGLVQAGGSLRLSCAASGSIFSRNAMGWYRQAPGKERELVAAITRSGGRTYYADSVKGRFTISRDNAKNTVYLQMNSLKPEDTAVYYCNALASQEYDYWGQGTQVTVSS,high polyreactivity
11,QVQLVESGGGLVQAGGSLRLSCADSGSIFLIYAMGWYRQAPGKERELVATINRGDNTYYADSVKGRFTISRDNAKITVYLQMYSLKPEDTADGYWGQGTQVTGSS,low polyreactivity
12,QVQLVESGGGLVQAGGSLRLSCAASGSIFFRYAMGWYRQAPGKERELVARISWGGGRTYYADSVKGRFTISRDNAKNTVYLQMNSLKPEDTAVYYCNRAYWVNPGGFDYWGQGTQVTVSS,high polyreactivity
13,QVQLVESGGGLVQAGGSLRLSCAASGSISVYNAMGWYRPAPGKERELVAAISWSGGRTSYADSVKGRFTISRDHAKNTVYLQMNSLKPEDTAVYYCAADELSVLWDEDYWGQVTQVTVSS,low polyreactivity
14,QVQLVESGGGLVQAGGSLRLSCAASVLILYYYAMGWYRQAPGKERELVAAISRRDGDTYYADSVKGRFTISRDNAKNTVYLQMNSLKPEDTAVYYCAADRRWSWVFRDDYWGQGTQVTVSS,low polyreactivity
15,QVQLVESGGGLVQAGGSRRLICAASGSIFGWYAMGWYRPAHGKERELVAAISQSGGRTYYADSVKGRFTISRDNAKNTVYLQMNSLKPEDTAVYYCAAYYTSYWGYDYDYWGQGTQVTVSS,low polyreactivity
16,QVQLVESGGGLVQAGGSLRLICAASGSTFVLYAMGWYRQAPGKERELVAAITKRGGNTYYADSVKGRFTISRDNAKNTVYLQMNSLKPEDTAVYYCAADHVRSPFDSWGQGTQVTVSS,low polyreactivity
17,QVQLVESGGGLVQAGGSLRLSCAASGFIFHVYAMGWYRQAPGKERELVARITSSGGNTFYADSVKGRFTISRDNAKNTVYLQMNSLKPEDTAVYYCAKRYRYSVGWPVKNSAFGYWGQGTQVTVSS,low polyreactivity
